Experimental data published in publication PMC2150914.

Biological target: taxol-stabilized microtubules polymerized in Xenopus egg extract (Xenopus (endogenous in Xenopus egg extract))
Assay: co-sedimentation

percent bound: < 70%
Substance: X-p21-activated kinase (PAK)5, endogenous (natural protein)
